From US20130116129, “METHOD FOR DETECTING TARGET MOLECULES” (NATIONAL INSTITUTE OF ADVANCED INDUSTRIAL SCIENCE AND …, published 2013) come the findings set out here.

The target of data set [1] is T1, streptavidin (UniProt P22629 P22629:25-183). The experiment in a line: footprint; S1 nuclease protection; 50 mM NaCl, 20 mM MgCl2, Tris pH 7.5; ratio to control varies with streptavidin concentration. The note with it: tags: Roche (free); Dynabeads streptavidin (Invitrogen) for bead selections; chain copies: 4. How it is done: (§1) Subsequently, 1 μl of S1 nuclease (22.5 units/μl) (Takara, Japan) was added to each tube followed by 20-minutes reaction at 37° C., and then the reaction was stopped by heating at 98° C. for 3 minutes.
(§2) PCR was performed, using a thermal circular (Biometra), after keeping the temperature at 96° C. for 1 minute, for 1 cycle of 95° C. for 15 seconds, 46° C. for 20 seconds, and 72° C. for 60 seconds, then 40 cycles each consisting of 95° C. for 15 seconds and 72° C. for 60 seconds. As a PCR reagent, KOD-Neo-plus (Toyobo Co., Ltd., Japan) was used.
(§3) After PCR, products were digested with the Msp I restriction enzyme. […] Samples after digestion were subjected to gel electrophoresis, so that the ratio of the amount of the streptavidin aptamer to the amount of the control aptamer could be determined.

Data set [2] addresses T1, streptavidin. The experiment in a line: footprint; stated non-binding control in S1 nuclease protection assay. As to conditions: tags: Roche (free); Dynabeads streptavidin (Invitrogen) for bead selections; chain copies: 4. How it is done:
as §1, §2, §3

T1 sequence (P22629 25-183, one chain of several): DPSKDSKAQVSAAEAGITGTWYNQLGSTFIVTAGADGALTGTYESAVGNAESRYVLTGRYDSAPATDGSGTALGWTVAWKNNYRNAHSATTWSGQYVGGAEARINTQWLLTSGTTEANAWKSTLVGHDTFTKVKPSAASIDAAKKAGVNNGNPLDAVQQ

TCTGTGAGACGACGCACCGGTCGCAGGTTTTGTCTCACAG (ssDNA) [streptavidin aptamer]: the binding result with streptavidin [1] is on record as “binds”. Turning to TCTGTGAGACGACGCACCGACCGCAGGTTTTGTCTCACAG (ssDNA) [control aptamer], the binding result with streptavidin [2] is given as “no binding”.
